Protein stability index data for 23 sequences are collected here from the supplement of paper PMC9732359.

± gives the uncertainty stated by the source.

This series can be described thus: protein stability index of a GFP-peptide fusion (yeast GPS) (PSI 1-4); higher = more stable; sorted into four equal gates, so the index is relative within each strain. A digest of the protocol:
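The protein stability index combines read frequencies across sorting gates, each weighted by its gate number and then summed. To obtain those frequencies, a pooled yeast library of GFP fusions to tiled 17-residue yeast protein peptides, on a plasmid also expressing Cherry, was grown to mid-log phase in leucine-free medium. The cells were sorted into four equal gates by GFP/Cherry ratio before plasmid amplification by PCR and Illumina sequencing.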

As for LDIEKEAPAGNIDTITD [MCD1], the protein stability index is, setting by setting: (doa10∆) 2.84 ± 0.081; (pdr5∆) 3.03 ± 0.066; (san1∆) 3.07 ± 0.086; (ubr1∆) 3.08 ± 0.052.
AGSGSTFIYGYCDKNFR [PRE3]: the protein stability index runs as follows: (doa10∆) 1.24 ± 0.085; (pdr5∆) 1.42 ± 0.057; (san1∆) 1.51 ± 0.099; (ubr1∆) 1.49 ± 0.059.
Sequence KITTSTEDQKVTTNINW [SRP68] gave a protein stability index (doa10∆) of 3.13 ± 0.078, a protein stability index (pdr5∆) of 3.13 ± 0.072, a protein stability index (san1∆) of 3.21 ± 0.068 and a protein stability index (ubr1∆) of 3.11 ± 0.054.
For the sequence LNAIVSKNSPAEDDVII [YJR042W/NUP85], the protein stability index reads like this: (doa10∆) 3.44 ± 0.14; (pdr5∆) 3.37 ± 0.17; (san1∆) 3.27 ± 0.087; (ubr1∆) 3.22 ± 0.12.
On to YYKKFLIEPLPTESYLQ [BRR2], for which the protein stability index is, setting by setting: (doa10∆) 1.85 ± 0.055; (pdr5∆) 2.58 ± 0.066; (san1∆) 1.78 ± 0.13; (ubr1∆) 2.48 ± 0.055.
For GKYVIAGHVSGVITVHN [RPN14], the protein stability index was 1.55 ± 0.098 (doa10∆), 2.48 ± 0.092 (pdr5∆), 2.48 ± 0.1 (san1∆) and 3.23 ± 0.038 (ubr1∆).
As for QDDIDEMVENSSENNQI [SRP68], the protein stability index came to 3.35 ± 0.1 (doa10∆), 3.25 ± 0.11 (pdr5∆), 2.97 ± 0.14 (san1∆) and 3.35 ± 0.088 (ubr1∆).
EIKNWISDIPYVISLSY [YMR129W/POM152] showed a protein stability index (ubr1∆) of 1.27 ± 0.27.
ANKLSKSHSTVSSSSRH [ISW2]: the protein stability index was 2.9 ± 0.066 (doa10∆), 2.63 ± 0.069 (pdr5∆), 2.71 ± 0.056 (san1∆) and 2.93 ± 0.037 (ubr1∆).
HYKQQIAVLIELLEERF [YCS4]: the protein stability index was 2.01 ± 0.07 (doa10∆), 2.12 ± 0.065 (pdr5∆), 2.48 ± 0.1 (san1∆) and 2.34 ± 0.072 (ubr1∆).
With LQDWQREDEFGSIPSLT [YDL088C/ASM4], the protein stability index runs as follows: (doa10∆) 3.22 ± 0.073; (pdr5∆) 3.19 ± 0.066; (san1∆) 3.11 ± 0.049; (ubr1∆) 3.53 ± 0.082.
With LKRRQVIEQCYLKFIPL [SRB8], the protein stability index is 1.91 ± 0.045 (doa10∆), 1.98 ± 0.048 (pdr5∆), 1.52 ± 0.082 (san1∆) and 1.83 ± 0.032 (ubr1∆).
As to LNKAGKPFRQTKFKVRG [RPL38], the protein stability index reads like this: (doa10∆) 2.78 ± 0.12; (pdr5∆) 3.33 ± 0.069; (san1∆) 3.19 ± 0.11; (ubr1∆) 3.04 ± 0.081.
With YLLISKENKKRKNFKMG [IRR1], the protein stability index runs as follows: (doa10∆) 2.91 ± 0.097; (pdr5∆) 3.24 ± 0.14; (san1∆) 3.02 ± 0.06; (ubr1∆) 3.11 ± 0.078.
The matching figures for IEDLWQFLYEKHYKNIP [RPC82]: 2.23 ± 0.088, 1.53 ± 0.078, 1.62 ± 0.19 and 2.1 ± 0.071.
For the sequence QGISGSQQNIVPNSSDQ [SNF2], the protein stability index is, setting by setting: (doa10∆) 2.92 ± 0.05; (pdr5∆) 3.11 ± 0.06; (san1∆) 3.16 ± 0.041; (ubr1∆) 2.95 ± 0.053.
Turning to NAEKYFNNGDDDDYGDE [RPC31], the protein stability index was 3.18 ± 0.099 (doa10∆), 2.67 ± 0.13 (pdr5∆), 3.07 ± 0.066 (san1∆) and 3.16 ± 0.073 (ubr1∆).
Take EIGPSPTLAGMAQRTLK [FAS2]: the protein stability index is, setting by setting: (doa10∆) 2.392 ± 0.02; (pdr5∆) 2.559 ± 0.021; (san1∆) 2.546 ± 0.021; (ubr1∆) 2.45 ± 0.015.
For SDMQHIERLLKDLVTEN [PRE4], the protein stability index (doa10∆) amounted to 1.63 ± 0.14, the protein stability index (pdr5∆) came to 2.61 ± 0.13, the protein stability index (san1∆) amounted to 2.31 ± 0.17 and the protein stability index (ubr1∆) turned out to be 2.97 ± 0.15.
In the case of ACEPTAEKFVPIDIFQI [SIR3], the protein stability index came to 2.72 ± 0.092 (doa10∆), 2.71 ± 0.059 (pdr5∆), 2.66 ± 0.07 (san1∆) and 2.98 ± 0.048 (ubr1∆).
As for TGKDCVAIACDLRLGSQ [PUP3], the protein stability index was found to be 1.38 ± 0.088 (doa10∆), 1.48 ± 0.092 (pdr5∆), 2.32 ± 0.064 (san1∆) and 2.7 ± 0.061 (ubr1∆).
Turning to LRQFKTCPVEVIKRLEA [BRR2], the protein stability index amounted to 2.94 ± 0.18 (doa10∆), 3.23 ± 0.17 (pdr5∆) and 2.81 ± 0.1 (ubr1∆).
As for IHKQIVIEMKRCFENLQ [UBP6], the protein stability index is, setting by setting: (doa10∆) 2.75 ± 0.097; (pdr5∆) 2.13 ± 0.093; (san1∆) 3.1 ± 0.064; (ubr1∆) 2.87 ± 0.1.
